Reference: US20150274828A1 (SHANGHAI SERUM BIOTECHNOLOGY, published 2015)

Biological target: T1, EGFR-Fc fusion protein (recombinant EGFR extracellular region-Fc) (human, UniProt P00533 25-645)
T1 construct: extracellular domain; not shown: Fc part supplied by vector pABG1
Assay: BLI ForteBio QKe, biotinylated EGFR-Fc on streptavidin sensor, antibody 20 nM; fold reduction of affinity, parent Ame55 = 1;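 also: parent antibody affinity set as 1, with values giving the fold drop in affinity of each mutant antibody relative to that parent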

Row | Binder | Affinity change [fold]
1 | Ame55 mutant, light chain 26G(C1) (antibody, V domains shown, Mutant of Ame55) VH: EVQLVQSGAEVKKPGESLKISCKGSGYSFTSYWIGWVRQMPGKGLEWMGIIYPGDSDTRYSPSFQGQVTISADKSISTAYLQWSSLKASDTAMYYCARGIIYPSNVAVWGQGTLVTVSS VL: SYELTQPPSVSVAPGQTARITCSGDGLGDKYASWYQQKPGQAPVLVIYEDSKRPSGIPERFSGSNSGNTATLTISGTQAEDEADYYCSVWDGDWGMPVFGGGTKLTVLG | 0.5
2 | Ame55 mutant, light chain 29E (antibody, V domains shown, Mutant of Ame55) VH: EVQLVQSGAEVKKPGESLKISCKGSGYSFTSYWIGWVRQMPGKGLEWMGIIYPGDSDTRYSPSFQGQVTISADKSISTAYLQWSSLKASDTAMYYCARGIIYPSNVAVWGQGTLVTVSS VL: SYELTQPPSVSVAPGQTARITCSGDALGEKYASWYQQKPGQAPVLVIYEDSKRPSGIPERFSGSNSGNTATLTISGTQAEDEADYYCSVWDGDWGMPVFGGGTKLTVLG | > 100
3 | Ame55 mutant, light chain 88N (antibody, V domains shown, Mutant of Ame55) VH: EVQLVQSGAEVKKPGESLKISCKGSGYSFTSYWIGWVRQMPGKGLEWMGIIYPGDSDTRYSPSFQGQVTISADKSISTAYLQWSSLKASDTAMYYCARGIIYPSNVAVWGQGTLVTVSS VL: SYELTQPPSVSVAPGQTARITCSGDALGDKYASWYQQKPGQAPVLVIYEDSKRPSGIPERFSGSNSGNTATLTISGTQAEDEADYYCNVWDGDWGMPVFGGGTKLTVLG | > 10
4 | Ame55 mutant, light chain 88Q (antibody, V domains shown, Mutant of Ame55) VH: EVQLVQSGAEVKKPGESLKISCKGSGYSFTSYWIGWVRQMPGKGLEWMGIIYPGDSDTRYSPSFQGQVTISADKSISTAYLQWSSLKASDTAMYYCARGIIYPSNVAVWGQGTLVTVSS VL: SYELTQPPSVSVAPGQTARITCSGDALGDKYASWYQQKPGQAPVLVIYEDSKRPSGIPERFSGSNSGNTATLTISGTQAEDEADYYCQVWDGDWGMPVFGGGTKLTVLG | 2
5 | Ame55 mutant, light chain 88A (antibody, V domains shown, Mutant of Ame55) VH: EVQLVQSGAEVKKPGESLKISCKGSGYSFTSYWIGWVRQMPGKGLEWMGIIYPGDSDTRYSPSFQGQVTISADKSISTAYLQWSSLKASDTAMYYCARGIIYPSNVAVWGQGTLVTVSS VL: SYELTQPPSVSVAPGQTARITCSGDALGDKYASWYQQKPGQAPVLVIYEDSKRPSGIPERFSGSNSGNTATLTISGTQAEDEADYYCAVWDGDWGMPVFGGGTKLTVLG | > 10
6 | Ame55 mutant, light chain 26K(C3) (antibody, V domains shown, Mutant of Ame55) VH: EVQLVQSGAEVKKPGESLKISCKGSGYSFTSYWIGWVRQMPGKGLEWMGIIYPGDSDTRYSPSFQGQVTISADKSISTAYLQWSSLKASDTAMYYCARGIIYPSNVAVWGQGTLVTVSS VL: SYELTQPPSVSVAPGQTARITCSGDKLGDKYASWYQQKPGQAPVLVIYEDSKRPSGIPERFSGSNSGNTATLTISGTQAEDEADYYCSVWDGDWGMPVFGGGTKLTVLG | 0.3
7 | Ame55 mutant, light chain 32V (antibody, V domains shown, Mutant of Ame55) VH: EVQLVQSGAEVKKPGESLKISCKGSGYSFTSYWIGWVRQMPGKGLEWMGIIYPGDSDTRYSPSFQGQVTISADKSISTAYLQWSSLKASDTAMYYCARGIIYPSNVAVWGQGTLVTVSS VL: SYELTQPPSVSVAPGQTARITCSGDALGDKYVSWYQQKPGQAPVLVIYEDSKRPSGIPERFSGSNSGNTATLTISGTQAEDEADYYCSVWDGDWGMPVFGGGTKLTVLG | 2
8 | Ame55 mutant, light chain 90A (antibody, V domains shown, Mutant of Ame55) VH: EVQLVQSGAEVKKPGESLKISCKGSGYSFTSYWIGWVRQMPGKGLEWMGIIYPGDSDTRYSPSFQGQVTISADKSISTAYLQWSSLKASDTAMYYCARGIIYPSNVAVWGQGTLVTVSS VL: SYELTQPPSVSVAPGQTARITCSGDALGDKYASWYQQKPGQAPVLVIYEDSKRPSGIPERFSGSNSGNTATLTISGTQAEDEADYYCSVADGDWGMPVFGGGTKLTVLG | > 10
9 | Ame55 mutant, light chain 33Y (antibody, V domains shown, Mutant of Ame55) VH: EVQLVQSGAEVKKPGESLKISCKGSGYSFTSYWIGWVRQMPGKGLEWMGIIYPGDSDTRYSPSFQGQVTISADKSISTAYLQWSSLKASDTAMYYCARGIIYPSNVAVWGQGTLVTVSS VL: SYELTQPPSVSVAPGQTARITCSGDALGDKYAYWYQQKPGQAPVLVIYEDSKRPSGIPERFSGSNSGNTATLTISGTQAEDEADYYCSVWDGDWGMPVFGGGTKLTVLG | 2
10 | Ame55 mutant, light chain 88L (antibody, V domains shown, Mutant of Ame55) VH: EVQLVQSGAEVKKPGESLKISCKGSGYSFTSYWIGWVRQMPGKGLEWMGIIYPGDSDTRYSPSFQGQVTISADKSISTAYLQWSSLKASDTAMYYCARGIIYPSNVAVWGQGTLVTVSS VL: SYELTQPPSVSVAPGQTARITCSGDALGDKYASWYQQKPGQAPVLVIYEDSKRPSGIPERFSGSNSGNTATLTISGTQAEDEADYYCLVWDGDWGMPVFGGGTKLTVLG | 5
11 | Ame55 mutant, light chain 51G (antibody, V domains shown, Mutant of Ame55) VH: EVQLVQSGAEVKKPGESLKISCKGSGYSFTSYWIGWVRQMPGKGLEWMGIIYPGDSDTRYSPSFQGQVTISADKSISTAYLQWSSLKASDTAMYYCARGIIYPSNVAVWGQGTLVTVSS VL: SYELTQPPSVSVAPGQTARITCSGDALGDKYASWYQQKPGQAPVLVIYEDGKRPSGIPERFSGSNSGNTATLTISGTQAEDEADYYCSVWDGDWGMPVFGGGTKLTVLG | 1
12 | Ame55 mutant, light chain 91A (antibody, V domains shown, Mutant of Ame55) VH: EVQLVQSGAEVKKPGESLKISCKGSGYSFTSYWIGWVRQMPGKGLEWMGIIYPGDSDTRYSPSFQGQVTISADKSISTAYLQWSSLKASDTAMYYCARGIIYPSNVAVWGQGTLVTVSS VL: SYELTQPPSVSVAPGQTARITCSGDALGDKYASWYQQKPGQAPVLVIYEDSKRPSGIPERFSGSNSGNTATLTISGTQAEDEADYYCSVWAGDWGMPVFGGGTKLTVLG | > 10
13 | Ame55 mutant, light chain 89L (antibody, V domains shown, Mutant of Ame55) VH: EVQLVQSGAEVKKPGESLKISCKGSGYSFTSYWIGWVRQMPGKGLEWMGIIYPGDSDTRYSPSFQGQVTISADKSISTAYLQWSSLKASDTAMYYCARGIIYPSNVAVWGQGTLVTVSS VL: SYELTQPPSVSVAPGQTARITCSGDALGDKYASWYQQKPGQAPVLVIYEDSKRPSGIPERFSGSNSGNTATLTISGTQAEDEADYYCSLWDGDWGMPVFGGGTKLTVLG | 5
14 | Ame55 mutant, light chain 32I (antibody, V domains shown, Mutant of Ame55) VH: EVQLVQSGAEVKKPGESLKISCKGSGYSFTSYWIGWVRQMPGKGLEWMGIIYPGDSDTRYSPSFQGQVTISADKSISTAYLQWSSLKASDTAMYYCARGIIYPSNVAVWGQGTLVTVSS VL: SYELTQPPSVSVAPGQTARITCSGDALGDKYISWYQQKPGQAPVLVIYEDSKRPSGIPERFSGSNSGNTATLTISGTQAEDEADYYCSVWDGDWGMPVFGGGTKLTVLG | 1
15 | Ame55 mutant, light chain 88Y (antibody, V domains shown, Mutant of Ame55) VH: EVQLVQSGAEVKKPGESLKISCKGSGYSFTSYWIGWVRQMPGKGLEWMGIIYPGDSDTRYSPSFQGQVTISADKSISTAYLQWSSLKASDTAMYYCARGIIYPSNVAVWGQGTLVTVSS VL: SYELTQPPSVSVAPGQTARITCSGDALGDKYASWYQQKPGQAPVLVIYEDSKRPSGIPERFSGSNSGNTATLTISGTQAEDEADYYCYVWDGDWGMPVFGGGTKLTVLG | 5
16 | Ame55 mutant, light chain 92P (antibody, V domains shown, Mutant of Ame55) VH: EVQLVQSGAEVKKPGESLKISCKGSGYSFTSYWIGWVRQMPGKGLEWMGIIYPGDSDTRYSPSFQGQVTISADKSISTAYLQWSSLKASDTAMYYCARGIIYPSNVAVWGQGTLVTVSS VL: SYELTQPPSVSVAPGQTARITCSGDALGDKYASWYQQKPGQAPVLVIYEDSKRPSGIPERFSGSNSGNTATLTISGTQAEDEADYYCSVWDPDWGMPVFGGGTKLTVLG | 1
17 | Ame55 mutant, light chain 88G (antibody, V domains shown, Mutant of Ame55) VH: EVQLVQSGAEVKKPGESLKISCKGSGYSFTSYWIGWVRQMPGKGLEWMGIIYPGDSDTRYSPSFQGQVTISADKSISTAYLQWSSLKASDTAMYYCARGIIYPSNVAVWGQGTLVTVSS VL: SYELTQPPSVSVAPGQTARITCSGDALGDKYASWYQQKPGQAPVLVIYEDSKRPSGIPERFSGSNSGNTATLTISGTQAEDEADYYCGVWDGDWGMPVFGGGTKLTVLG | 3
18 | Ame55 mutant, light chain 26N(C2) (antibody, V domains shown, Mutant of Ame55) VH: EVQLVQSGAEVKKPGESLKISCKGSGYSFTSYWIGWVRQMPGKGLEWMGIIYPGDSDTRYSPSFQGQVTISADKSISTAYLQWSSLKASDTAMYYCARGIIYPSNVAVWGQGTLVTVSS VL: SYELTQPPSVSVAPGQTARITCSGDNLGDKYASWYQQKPGQAPVLVIYEDSKRPSGIPERFSGSNSGNTATLTISGTQAEDEADYYCSVWDGDWGMPVFGGGTKLTVLG | 1
19 | Ame55 mutant, light chain 92S (antibody, V domains shown, Mutant of Ame55) VH: EVQLVQSGAEVKKPGESLKISCKGSGYSFTSYWIGWVRQMPGKGLEWMGIIYPGDSDTRYSPSFQGQVTISADKSISTAYLQWSSLKASDTAMYYCARGIIYPSNVAVWGQGTLVTVSS VL: SYELTQPPSVSVAPGQTARITCSGDALGDKYASWYQQKPGQAPVLVIYEDSKRPSGIPERFSGSNSGNTATLTISGTQAEDEADYYCSVWDSDWGMPVFGGGTKLTVLG | 4
20 | Ame55 mutant, light chain 55P (antibody, V domains shown, Mutant of Ame55) VH: EVQLVQSGAEVKKPGESLKISCKGSGYSFTSYWIGWVRQMPGKGLEWMGIIYPGDSDTRYSPSFQGQVTISADKSISTAYLQWSSLKASDTAMYYCARGIIYPSNVAVWGQGTLVTVSS VL: SYELTQPPSVSVAPGQTARITCSGDALGDKYASWYQQKPGQAPVLVIYEDSKRPPGIPERFSGSNSGNTATLTISGTQAEDEADYYCSVWDGDWGMPVFGGGTKLTVLG | 2
21 | Ame55 mutant, light chain 92A (antibody, V domains shown, Mutant of Ame55) VH: EVQLVQSGAEVKKPGESLKISCKGSGYSFTSYWIGWVRQMPGKGLEWMGIIYPGDSDTRYSPSFQGQVTISADKSISTAYLQWSSLKASDTAMYYCARGIIYPSNVAVWGQGTLVTVSS VL: SYELTQPPSVSVAPGQTARITCSGDALGDKYASWYQQKPGQAPVLVIYEDSKRPSGIPERFSGSNSGNTATLTISGTQAEDEADYYCSVWDADWGMPVFGGGTKLTVLG | 2
